The supplement of paper PMC9112550, “Optimization of the antimicrobial peptide Bac7 by deep mutational scanning” (BMC Biology, 2022)

System: Escherichia coli TOP10
Experiment: shrunken log2 fold change of peptide-encoding DNA abundance (4.5 h post-induction vs induction); higher = less antimicrobial activity (less host growth inhibition)
Conditions: time post-induction: 4.5 h; library: site-saturation at positions 5, 18, 19, 20
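Note: peptides expressed intracellularly from a pBAD plasmid library in pooled LB shake-flask culture, induced with 0.3% L-arabinose, DNA abundance read by NGS, three biological replicates, DESeq2 with apeglm shrinkage.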

RRIRGRPPRLPRPRPRPDDQPRP was tested, and the “shrunken log2 fold change” value was 1.92.

In the case of RRIRSRPPRLPRPRPRPPWTPRP, the “shrunken log2 fold change” value is reported as 0.319.

RRIRMRPPRLPRPRPRPKHNPRP was tested, and the “shrunken log2 fold change” value was 0.131.

With RRIRVRPPRLPRPRPRPMVMPRP the “shrunken log2 fold change” value was -0.0371.

For RRIRMRPPRLPRPRPRPVTLPRP, the “shrunken log2 fold change” value was -0.393.

For RRIRARPPRLPRPRPRPWQWPRP, the “shrunken log2 fold change” value was -0.00151.

For RRIRWRPPRLPRPRPRPSQQPRP, the “shrunken log2 fold change” value was -0.002.

In the case of RRIRHRPPRLPRPRPRPQQPPRP, the “shrunken log2 fold change” value is reported as 0.176.

For RRIRRRPPRLPRPRPRPAIYPRP, the “shrunken log2 fold change” value was -0.148.

For RRIRTRPPRLPRPRPRPFQQPRP, the “shrunken log2 fold change” value was 0.0654.

With RRIRERPPRLPRPRPRPPRSPRP the “shrunken log2 fold change” value was 0.375.

With RRIRWRPPRLPRPRPRPTQPPRP the “shrunken log2 fold change” value was 0.398.

For RRIRGRPPRLPRPRPRPHTEPRP, the “shrunken log2 fold change” value was -0.0408.

With RRIRDRPPRLPRPRPRPVLSPRP the “shrunken log2 fold change” value was -0.0284.

For RRIRIRPPRLPRPRPRPMTWPRP, the “shrunken log2 fold change” value was -0.0244.

In the case of RRIRERPPRLPRPRPRPGGVPRP, the “shrunken log2 fold change” value is reported as 0.0164.

In the case of RRIRKRPPRLPRPRPRPGLNPRP, the “shrunken log2 fold change” value is reported as 0.0896.

With RRIRYRPPRLPRPRPRPIFFPRP the “shrunken log2 fold change” value was -0.353.

For RRIRARPPRLPRPRPRPPPYPRP, the “shrunken log2 fold change” value was 0.698.

For RRIRCRPPRLPRPRPRPLDRPRP, the “shrunken log2 fold change” value was -0.478.

With RRIRQRPPRLPRPRPRPEFWPRP the “shrunken log2 fold change” value was 0.238.

In the case of RRIRSRPPRLPRPRPRPGPMPRP, the “shrunken log2 fold change” value is reported as 0.34.

With RRIRRRPPRLPRPRPRPATRPRP the “shrunken log2 fold change” value was 0.226.

In the case of RRIRVRPPRLPRPRPRPGLNPRP, the “shrunken log2 fold change” value is reported as -0.00582.

RRIRIRPPRLPRPRPRPLPQPRP was tested, and the “shrunken log2 fold change” value was -0.247.

With RRIRERPPRLPRPRPRPTGPPRP the “shrunken log2 fold change” value was 0.353.

With RRIRFRPPRLPRPRPRPQMAPRP the “shrunken log2 fold change” value was 0.168.

For RRIRDRPPRLPRPRPRPSFQPRP, the “shrunken log2 fold change” value was -0.0455.

With RRIRSRPPRLPRPRPRPYQSPRP the “shrunken log2 fold change” value was 0.0187.

In the case of RRIRKRPPRLPRPRPRPPDVPRP, the “shrunken log2 fold change” value is reported as -0.0127.

RRIRGRPPRLPRPRPRPRCVPRP was tested, and the “shrunken log2 fold change” value was 0.689.

RRIRARPPRLPRPRPRPIVRPRP was tested, and the “shrunken log2 fold change” value was -0.146.

With RRIRTRPPRLPRPRPRPYQIPRP the “shrunken log2 fold change” value was -0.0573.

For RRIRNRPPRLPRPRPRPQFHPRP, the “shrunken log2 fold change” value was -0.28.

RRIRTRPPRLPRPRPRPPFIPRP was tested, and the “shrunken log2 fold change” value was -0.177.

RRIRYRPPRLPRPRPRPNNMPRP was tested, and the “shrunken log2 fold change” value was -0.633.

RRIRNRPPRLPRPRPRPTREPRP was tested, and the “shrunken log2 fold change” value was 0.15.

With RRIRNRPPRLPRPRPRPSYSPRP the “shrunken log2 fold change” value was -0.555.

RRIRWRPPRLPRPRPRPYVVPRP was tested, and the “shrunken log2 fold change” value was -0.256.

RRIRGRPPRLPRPRPRPTQLPRP was tested, and the “shrunken log2 fold change” value was 1.02.

With RRIRWRPPRLPRPRPRPQAKPRP the “shrunken log2 fold change” value was 0.00651.

RRIRDRPPRLPRPRPRPRMKPRP was tested, and the “shrunken log2 fold change” value was 0.0166.

RRIRGRPPRLPRPRPRPWALPRP was tested, and the “shrunken log2 fold change” value was -0.115.

RRIRSRPPRLPRPRPRPDAMPRP was tested, and the “shrunken log2 fold change” value was 0.83.

With RRIRFRPPRLPRPRPRPSKYPRP the “shrunken log2 fold change” value was -0.868.

In the case of RRIRQRPPRLPRPRPRPSTQPRP, the “shrunken log2 fold change” value is reported as -0.481.

RRIRARPPRLPRPRPRPRFWPRP was tested, and the “shrunken log2 fold change” value was 0.691.

With RRIRVRPPRLPRPRPRPQGPPRP the “shrunken log2 fold change” value was 0.107.

For RRIRIRPPRLPRPRPRPAPEPRP, the “shrunken log2 fold change” value was 1.9.

For RRIRWRPPRLPRPRPRPQKNPRP, the “shrunken log2 fold change” value was 0.0916.

For RRIRKRPPRLPRPRPRPKTAPRP, the “shrunken log2 fold change” value was 0.2.

For RRIRPRPPRLPRPRPRPHHWPRP, the “shrunken log2 fold change” value was -0.103.

RRIRNRPPRLPRPRPRPNRTPRP was tested, and the “shrunken log2 fold change” value was -0.0201.

With RRIRWRPPRLPRPRPRPFDYPRP the “shrunken log2 fold change” value was -0.554.

For RRIRYRPPRLPRPRPRPHKAPRP, the “shrunken log2 fold change” value was -0.0167.

For RRIRRRPPRLPRPRPRPFCHPRP, the “shrunken log2 fold change” value was -0.17.

In the case of RRIRGRPPRLPRPRPRPGRIPRP, the “shrunken log2 fold change” value is reported as 0.153.

For RRIRDRPPRLPRPRPRPDIYPRP, the “shrunken log2 fold change” value was 0.0286.

In the case of RRIRLRPPRLPRPRPRPKPGPRP, the “shrunken log2 fold change” value is reported as 0.396.

RRIRWRPPRLPRPRPRPFVSPRP was tested, and the “shrunken log2 fold change” value was -0.135.

RRIRSRPPRLPRPRPRPGQFPRP was tested, and the “shrunken log2 fold change” value was -0.112.

RRIRVRPPRLPRPRPRPVHAPRP was tested, and the “shrunken log2 fold change” value was -0.189.

For RRIRGRPPRLPRPRPRPQKIPRP, the “shrunken log2 fold change” value was 0.274.

For RRIRCRPPRLPRPRPRPHGRPRP, the “shrunken log2 fold change” value was 0.0979.

For RRIRERPPRLPRPRPRPWMQPRP, the “shrunken log2 fold change” value was -0.327.

With RRIRERPPRLPRPRPRPGQNPRP the “shrunken log2 fold change” value was -0.0659.

With RRIRIRPPRLPRPRPRPELDPRP the “shrunken log2 fold change” value was 0.0332.

In the case of RRIRMRPPRLPRPRPRPKERPRP, the “shrunken log2 fold change” value is reported as 0.0219.

With RRIRVRPPRLPRPRPRPLKLPRP the “shrunken log2 fold change” value was -0.337.

In the case of RRIRARPPRLPRPRPRPATYPRP, the “shrunken log2 fold change” value is reported as 0.0208.

For RRIRDRPPRLPRPRPRPLRCPRP, the “shrunken log2 fold change” value was 0.177.

For RRIRKRPPRLPRPRPRPYHQPRP, the “shrunken log2 fold change” value was -0.231.

RRIRIRPPRLPRPRPRPKQDPRP was tested, and the “shrunken log2 fold change” value was -0.354.

With RRIRIRPPRLPRPRPRPCQYPRP the “shrunken log2 fold change” value was -1.06.

For RRIRIRPPRLPRPRPRPCLQPRP, the “shrunken log2 fold change” value was -0.0932.

For RRIRGRPPRLPRPRPRPFMFPRP, the “shrunken log2 fold change” value was 1.16.

With RRIRDRPPRLPRPRPRPQWWPRP the “shrunken log2 fold change” value was 0.274.

RRIRARPPRLPRPRPRPTRVPRP was tested, and the “shrunken log2 fold change” value was 0.343.

With RRIRARPPRLPRPRPRPECAPRP the “shrunken log2 fold change” value was 1.5.

RRIRHRPPRLPRPRPRPNCVPRP was tested, and the “shrunken log2 fold change” value was -0.0146.

With RRIRRRPPRLPRPRPRPCFSPRP the “shrunken log2 fold change” value was -0.14.

With RRIRERPPRLPRPRPRPLNWPRP the “shrunken log2 fold change” value was -0.373.

For RRIRRRPPRLPRPRPRPIWGPRP, the “shrunken log2 fold change” value was 0.163.

With RRIRLRPPRLPRPRPRPDFGPRP the “shrunken log2 fold change” value was 0.153.

With RRIRTRPPRLPRPRPRPRNGPRP the “shrunken log2 fold change” value was -0.0659.

RRIRSRPPRLPRPRPRPLQGPRP was tested, and the “shrunken log2 fold change” value was -0.0686.

RRIRVRPPRLPRPRPRPYPSPRP was tested, and the “shrunken log2 fold change” value was -0.422.

In the case of RRIRKRPPRLPRPRPRPIYMPRP, the “shrunken log2 fold change” value is reported as -0.0645.

With RRIRRRPPRLPRPRPRPGFEPRP the “shrunken log2 fold change” value was 0.293.

RRIRPRPPRLPRPRPRPAQDPRP was tested, and the “shrunken log2 fold change” value was 0.0233.

With RRIRQRPPRLPRPRPRPAECPRP the “shrunken log2 fold change” value was 0.17.

With RRIRVRPPRLPRPRPRPCYFPRP the “shrunken log2 fold change” value was -0.594.

With RRIRRRPPRLPRPRPRPVSKPRP the “shrunken log2 fold change” value was 0.24.

In the case of RRIRARPPRLPRPRPRPCVAPRP, the “shrunken log2 fold change” value is reported as 0.715.

For RRIRERPPRLPRPRPRPDTQPRP, the “shrunken log2 fold change” value was -0.116.

In the case of RRIRCRPPRLPRPRPRPIPQPRP, the “shrunken log2 fold change” value is reported as 0.153.

In the case of RRIRPRPPRLPRPRPRPCKSPRP, the “shrunken log2 fold change” value is reported as -0.0854.

For RRIRARPPRLPRPRPRPLWAPRP, the “shrunken log2 fold change” value was 0.589.

RRIRCRPPRLPRPRPRPEGLPRP was tested, and the “shrunken log2 fold change” value was 0.0021.

With RRIRSRPPRLPRPRPRPPVNPRP the “shrunken log2 fold change” value was -0.489.

RRIRCRPPRLPRPRPRPWVRPRP was tested, and the “shrunken log2 fold change” value was -0.0386.

For RRIRERPPRLPRPRPRPNQYPRP, the “shrunken log2 fold change” value was -0.674.

With RRIRIRPPRLPRPRPRPWNYPRP the “shrunken log2 fold change” value was 0.0299.

In the case of RRIRPRPPRLPRPRPRPECWPRP, the “shrunken log2 fold change” value is reported as 0.903.

In the case of RRIRWRPPRLPRPRPRPWEAPRP, the “shrunken log2 fold change” value is reported as 0.396.

For RRIRIRPPRLPRPRPRPCRMPRP, the “shrunken log2 fold change” value was -0.186.

With RRIRERPPRLPRPRPRPQGDPRP the “shrunken log2 fold change” value was -0.0405.

For RRIRERPPRLPRPRPRPGKQPRP, the “shrunken log2 fold change” value was -0.0388.

With RRIRHRPPRLPRPRPRPYYPPRP the “shrunken log2 fold change” value was -0.228.

For RRIRIRPPRLPRPRPRPWCGPRP, the “shrunken log2 fold change” value was -0.454.

With RRIRGRPPRLPRPRPRPNNSPRP the “shrunken log2 fold change” value was -0.114.

RRIRFRPPRLPRPRPRPTFPPRP was tested, and the “shrunken log2 fold change” value was -0.0193.

RRIRIRPPRLPRPRPRPNKGPRP was tested, and the “shrunken log2 fold change” value was -0.137.

For RRIRMRPPRLPRPRPRPCVPPRP, the “shrunken log2 fold change” value was 0.209.

RRIRHRPPRLPRPRPRPLWRPRP was tested, and the “shrunken log2 fold change” value was 0.57.

RRIRCRPPRLPRPRPRPKTEPRP was tested, and the “shrunken log2 fold change” value was -0.0486.

RRIRERPPRLPRPRPRPIMEPRP was tested, and the “shrunken log2 fold change” value was -0.465.

RRIRTRPPRLPRPRPRPAQVPRP was tested, and the “shrunken log2 fold change” value was -0.112.

With RRIRLRPPRLPRPRPRPAKSPRP the “shrunken log2 fold change” value was -0.0164.

RRIRDRPPRLPRPRPRPNPWPRP was tested, and the “shrunken log2 fold change” value was 0.111.

With RRIRGRPPRLPRPRPRPRYIPRP the “shrunken log2 fold change” value was -0.222.

In the case of RRIRCRPPRLPRPRPRPPALPRP, the “shrunken log2 fold change” value is reported as 0.415.

For RRIRQRPPRLPRPRPRPPPVPRP, the “shrunken log2 fold change” value was 0.607.

In the case of RRIRHRPPRLPRPRPRPYVTPRP, the “shrunken log2 fold change” value is reported as -0.182.

For RRIRGRPPRLPRPRPRPWCCPRP, the “shrunken log2 fold change” value was 0.0685.
